In experiment [1] the target is T1, GPIIb/IIIa on intact human platelets (human, UniProt P08514 32-1039; P05106 27-788).
T1 construct: whole, on cells; also called platelet GPIIb/IIIa; αIIbβ3
Nature of the experiment: flow cytometry on intact platelets.

Experiment [2] has as its target T2, vitronectin receptor (αvβ3) on CHO cells (UniProt P06756 31-1048; P05106 27-788, limits assumed).
T2 construct: whole, on cells
Put plainly: flow cytometry on transfected CHO cells.

The next experiment has as its target T3, immobilized GPIa/IIa (UniProt P17301 30-1181; P05556 21-798).
T3 construct: Antigen of the PakAuto ELISA kit
Nature of the experiment: ELISA (PakAuto kit), soluble Fab.

In another experiment the target is T4, H44L4 full-length IgG.
T4 construct: also called autoanti-GPIIb/IIIa
Put plainly: peptide ELISA (scheme of FIG. 8).

T2 sequence (P06756 31-1048 limits assumed, chain 1 of 2): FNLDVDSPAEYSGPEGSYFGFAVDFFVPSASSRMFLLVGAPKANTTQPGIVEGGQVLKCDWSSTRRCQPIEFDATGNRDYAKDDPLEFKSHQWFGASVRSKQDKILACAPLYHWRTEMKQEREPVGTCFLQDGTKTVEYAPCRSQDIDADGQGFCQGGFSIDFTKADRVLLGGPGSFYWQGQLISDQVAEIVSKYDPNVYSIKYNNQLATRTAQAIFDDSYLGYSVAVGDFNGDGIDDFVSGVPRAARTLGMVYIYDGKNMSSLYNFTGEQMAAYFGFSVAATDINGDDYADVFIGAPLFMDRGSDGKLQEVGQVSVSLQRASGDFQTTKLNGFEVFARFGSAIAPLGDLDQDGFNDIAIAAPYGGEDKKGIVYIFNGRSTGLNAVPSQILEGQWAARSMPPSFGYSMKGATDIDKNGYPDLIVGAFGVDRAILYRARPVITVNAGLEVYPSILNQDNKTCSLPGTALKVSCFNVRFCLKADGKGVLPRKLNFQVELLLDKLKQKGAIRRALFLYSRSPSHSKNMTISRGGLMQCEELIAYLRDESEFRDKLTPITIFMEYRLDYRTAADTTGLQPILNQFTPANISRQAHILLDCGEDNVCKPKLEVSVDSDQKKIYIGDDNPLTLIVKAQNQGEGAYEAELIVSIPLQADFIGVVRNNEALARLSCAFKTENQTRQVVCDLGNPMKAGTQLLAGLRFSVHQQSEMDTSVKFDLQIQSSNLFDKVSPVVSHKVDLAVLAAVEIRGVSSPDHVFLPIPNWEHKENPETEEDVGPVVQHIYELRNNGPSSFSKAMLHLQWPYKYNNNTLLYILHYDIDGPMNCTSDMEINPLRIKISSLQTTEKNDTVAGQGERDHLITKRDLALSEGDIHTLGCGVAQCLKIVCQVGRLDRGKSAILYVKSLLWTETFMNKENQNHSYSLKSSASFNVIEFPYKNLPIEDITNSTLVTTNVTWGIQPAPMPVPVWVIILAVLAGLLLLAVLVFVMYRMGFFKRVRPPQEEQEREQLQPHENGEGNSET
T2 sequence (P05106 27-788 limits assumed, chain 2 of 2): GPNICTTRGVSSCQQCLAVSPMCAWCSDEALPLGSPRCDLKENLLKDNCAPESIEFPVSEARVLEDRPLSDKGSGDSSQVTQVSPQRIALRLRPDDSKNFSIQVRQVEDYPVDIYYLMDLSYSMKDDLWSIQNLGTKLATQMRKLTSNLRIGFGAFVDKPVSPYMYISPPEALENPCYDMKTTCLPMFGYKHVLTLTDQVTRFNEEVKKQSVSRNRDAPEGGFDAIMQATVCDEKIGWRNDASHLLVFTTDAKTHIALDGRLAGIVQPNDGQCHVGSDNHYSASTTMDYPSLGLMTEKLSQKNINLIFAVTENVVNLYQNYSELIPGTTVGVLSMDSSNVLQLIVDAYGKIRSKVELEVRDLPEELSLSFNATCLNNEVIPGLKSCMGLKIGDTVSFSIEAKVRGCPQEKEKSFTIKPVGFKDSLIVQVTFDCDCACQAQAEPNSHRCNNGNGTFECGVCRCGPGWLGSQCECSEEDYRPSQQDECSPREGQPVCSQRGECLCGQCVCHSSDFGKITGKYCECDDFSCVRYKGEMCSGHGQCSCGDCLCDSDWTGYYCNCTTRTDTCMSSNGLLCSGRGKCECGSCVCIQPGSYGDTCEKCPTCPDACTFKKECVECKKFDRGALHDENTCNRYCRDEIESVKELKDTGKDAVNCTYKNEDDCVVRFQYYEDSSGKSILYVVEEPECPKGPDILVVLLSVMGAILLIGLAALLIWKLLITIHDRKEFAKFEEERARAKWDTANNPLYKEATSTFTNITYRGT
Protocol for immobilized GPIa/IIa: Antibodies to platelet GPIIb/IIIa, GPIb/IX, or GPIa/IIa were measured by using a PakAuto kit (GTI, Brookfield, Wis.); those to cardiolipin were assessed with a QuantaLite kit (Inova, San Diego, Calif.).

B1: H44L126 (Fab, V domains shown)
VH: QVQLVESGGGVVQPGRSLRLSCAASGFTFSYYAMVWVRQAPGKGLEWVAVISNDGRNKYYADSVKGRFTISRDNAKNTLYLQMNSLRVEDTAVYYCARLGYWGPGTLVTVSS
VL: DIQMTQSPSSLSASVGDRVIVTCRASQSISSYVSWYQQKPGKAPKLLISTTSTLQSGVPSRFSGSASGTDFTLTISSLQPEDFATYYCQQSSSRPLTFGQGTKVEIK
notes: Soluble Fab
For B1, the binding result in experiment [1] is recorded as “no binding”.

B2: H44L127 (Fab, V domains shown)
VH: QVQLVESGGGVVQPGRSLRLSCAASGFTFSYYAMVWVRQAPGKGLEWVAVISNDGRNKYYADSVKGRFTISRDNAKNTLYLQMNSLRVEDTAVYYCARLGYWGPGTLVTVSS
VL: DIQMTQSPSSLSASVGDRVTITCRASQTITSFLNWYQQKRGKAPKLLIYGASTLQSGVPSRFSGSGSGTDFTLTISSLQPEDVATYYCQQTYSQPLTFGQGTKVEIK
notes: Soluble Fab
For the molecule B2, the binding result in experiment [1] is given as “no binding”.

B3: H44L4 (Fab, V domains shown)
VH: QVQLVESGGGVVQPGRSLRLSCAASGFTFSYYAMVWVRQAPGKGLEWVAVISNDGRNKYYADSVKGRFTISRDNAKNTLYLQMNSLRVEDTAVYYCARLGYWGPGTLVTVSS
VL: DIQMTQSPSSLSVSVGDRVTITCRASQTITMYLNWYQQKPGKAPKLLIYAGSSLPSGVPPRFSGSGSGTDFTLTISSLQPEDFATYYCQQSYSTLTFGGGTKVEMK
notes: their results are put here; also called anti-GPIIb/IIIa platelet autoantibody; ITP patient A antibody H44L4
With B3, the binding result (in experiment [2]; with immobilized GPIa/IIa) was “no binding” throughout.

B4: H44L128 (Fab, V domains shown)
VH: QVQLVESGGGVVQPGRSLRLSCAASGFTFSYYAMVWVRQAPGKGLEWVAVISNDGRNKYYADSVKGRFTISRDNAKNTLYLQMNSLRVEDTAVYYCARLGYWGPGTLVTVSS
VL: DIQMTQSPSSLSAFVGDRVTITCRASQSITSYLNWYQQKPGKAPNLLIYAASSLQSGVPSRFSGSGSGTEFTLTISSLQPEDYATYYCQQRYSYILTFGQGTKVEIK
notes: Soluble Fab
For the molecule B4, the binding result in experiment [1] was “no binding”.

As for CVVQWMFQC [P74-1a], in the experiment with H44L4 full-length IgG, the binding result is listed as “binds”.

CVVSWMFQC [P74-8]: the binding result with H44L4 full-length IgG was “binds”.

Turning to CETWWRLSC [P73-6], the binding result in the experiment with H44L4 full-length IgG is listed as “binds”.

On to IDVWWLSTQGVP [P124-1], for which the binding result in the experiment with H44L4 full-length IgG was “binds”.

Consider FPLMSLINPWRT [P124-2], for which the binding result with H44L4 full-length IgG was “binds”.

Consider CIVEHFFHC [P73-2], for which the binding result with H44L4 full-length IgG is “binds”.

Regarding CQHKLPSNC [P73-7], the binding result with H44L4 full-length IgG is on record as “binds”.

Take FLPISTLITPSG [P123-8]: the binding result in the experiment with H44L4 full-length IgG is “binds”.

As for LPFNTLIVPGRT [P124-11], the binding result in the experiment with H44L4 full-length IgG was “binds”.

These data come from US8216581 (University of Pennsylvania, dated 2012).
